How the values were obtained:
c-Fos = molecular target: T1, c-Fos (UniProt P01100 1-380, limits assumed); experiment: similar assays (two-hybrid / co-immunoprecipitation; not specified)
T1 construct: Tested in 'similar assays'; The construct is not described

ATF-2 = molecular target: T2, ATF-2 (UniProt P15336 1-505, limits assumed); experiment: as above
T2 construct: Tested in 'similar assays'; The construct is not described
T2 sequence (looked up): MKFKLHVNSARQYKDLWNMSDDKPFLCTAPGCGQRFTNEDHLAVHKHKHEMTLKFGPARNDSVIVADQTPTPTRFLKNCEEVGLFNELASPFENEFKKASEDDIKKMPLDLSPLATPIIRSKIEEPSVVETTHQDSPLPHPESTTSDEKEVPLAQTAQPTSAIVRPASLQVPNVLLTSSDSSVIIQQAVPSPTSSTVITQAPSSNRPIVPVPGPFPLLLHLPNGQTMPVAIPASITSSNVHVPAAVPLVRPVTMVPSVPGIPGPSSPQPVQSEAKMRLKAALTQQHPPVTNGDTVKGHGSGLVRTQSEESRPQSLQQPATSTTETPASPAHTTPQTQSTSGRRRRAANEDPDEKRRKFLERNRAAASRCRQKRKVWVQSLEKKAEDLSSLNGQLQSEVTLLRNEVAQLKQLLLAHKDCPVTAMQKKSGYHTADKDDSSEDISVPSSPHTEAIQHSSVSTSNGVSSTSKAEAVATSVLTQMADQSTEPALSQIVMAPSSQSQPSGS

T1 sequence (P01100 whole entry): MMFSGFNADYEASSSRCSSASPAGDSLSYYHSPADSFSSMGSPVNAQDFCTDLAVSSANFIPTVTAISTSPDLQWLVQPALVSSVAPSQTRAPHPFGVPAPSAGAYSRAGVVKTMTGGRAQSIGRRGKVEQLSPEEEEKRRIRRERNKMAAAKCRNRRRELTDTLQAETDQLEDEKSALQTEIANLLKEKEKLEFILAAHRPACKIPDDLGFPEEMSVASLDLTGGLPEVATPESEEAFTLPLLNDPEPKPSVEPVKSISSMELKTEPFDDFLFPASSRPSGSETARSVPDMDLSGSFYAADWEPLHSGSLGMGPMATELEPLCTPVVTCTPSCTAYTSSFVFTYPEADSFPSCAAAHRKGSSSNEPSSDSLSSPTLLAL

binding result (c-Fos): no binding
binding result (ATF-2): no binding
B1: HA-tagged SARI (Suppressor of AP-1, Regulated by IFN), expressed in HeLa cells from Ad.SARI (other)
chain: MHLCGGNGLLTQTDPKEQQRQLKKQKNRAAAQRSRQKHTDKADALHQQHESLEKDNLALRKEIQSLQAELAWWSRTLHVHERLCPMDCASCSAPGLLGCWDQAEGLLGPGPQGQHGCREQLELFQTPGSCYPAQPLSPGPQPHDSPSLLQCPLPSLSLGPAVVAEPPVQLSPSPLLFASHTGSSLQGSSSKLSALQPSLTAQTAPPQPLELEHPTRGKLGSSPDNPSSALGLARLQSREHKPALSAATWQGLVVDPSPHPLLAFPLLSSAQVHF
notes: also called SARI protein; WT SARI; not shown: HA tag

From patent publication US20110313028A1 (VIRGINIA COMMONWEALTH UNIVERSITY, published 2011)
